Changes are numbered by the printed parent chain.

The target in this test is T1, extracellular domain of mouse IL23R (mIL23R ECD) (mouse, UniProt Q8K4B4 24-374).
T1 construct: The immunogen was an ECD-human IgG1 hinge-Fc fusion
T1 sequence: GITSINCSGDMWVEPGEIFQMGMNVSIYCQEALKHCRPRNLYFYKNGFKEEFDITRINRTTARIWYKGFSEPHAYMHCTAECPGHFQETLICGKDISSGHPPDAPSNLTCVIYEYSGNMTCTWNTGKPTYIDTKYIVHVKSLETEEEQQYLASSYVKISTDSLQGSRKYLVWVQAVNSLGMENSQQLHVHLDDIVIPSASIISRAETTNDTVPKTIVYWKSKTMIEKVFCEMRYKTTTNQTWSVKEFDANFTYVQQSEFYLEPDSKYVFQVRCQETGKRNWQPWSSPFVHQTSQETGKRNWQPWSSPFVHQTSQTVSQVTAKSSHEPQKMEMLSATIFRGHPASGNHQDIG
Description: periplasmic extract ELISA (PE-ELISA) of phage clones, colorimetric. Put shortly: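 Camels were immunized in turn with fusion proteins joining the human or mouse receptor extracellular domain to a human IgG1 hinge and Fc, and their VHH domains were recovered. RNA from the blood was transcribed, and a VHH fragment of approximately 400 bp was cloned into a phagemid in E. coli, in frame with a his-tag. The resulting phage library was biopanned over multiple rounds against either the human or the mouse extracellular domain. Selective binding of single clones was read colorimetrically by periplasmic extract ELISA in 96-well plates.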
For orientation: In an ELISA, binding on a coated surface is turned into a signal by an enzyme label.

B1: mIL23R VHH12 (VHH)
VHH: QVQLQESGGGSVQAGGSLRLSCAASGYTYSSCTMGWYRQAPGKERELVSMLISDGSTFYADSVKGRFTFSQENAKNTVYLQMNSLKPEDTAMYYCGCATLGSRTVWGQGTQVTVSS
notes: Phagemid clone with his-tag, periplasmic extract
On to B1, for which the binding result is “binds”.

B2: mIL23R VHH1 (VHH)
VHH: B1 VHH with N73Y
notes: as for B1
In the case of B2, the binding result was “binds”.

B3: mIL23R VHH8 (VHH)
VHH: B1 VHH with A23T, G26R, L51V, I52F, V105I
notes: as for B1
Take B3: the binding result is reported as “binds”.

B4: mIL23R VHH10 (VHH)
VHH: B1 VHH with Y27D, E46D, I52M, S53G, V105I
notes: as for B1
Take B4: the binding result was “binds”.

B5: mIL23R VHH11 (VHH)
VHH: B1 VHH with N76S
notes: as for B1
Turning to B5, the binding result is “binds”.

B6: mIL23R VHH25 (VHH)
VHH: B1 VHH with Y94F
notes: as for B1
In the case of B6, the binding result is “binds”.

B7: mIL23R VHH15 (VHH)
VHH: B1 VHH with L51V, I52F, V105I
notes: as for B1
In the case of B7, the binding result is “binds”.

B8: mIL23R VHH16 (VHH)
VHH: B1 VHH with Y27D, E46D, I52M, S53G, S84N, V105I
notes: as for B1
For B8, the binding result is recorded as “binds”.

B9: mIL23R VHH36 (VHH)
VHH: B1 VHH with Y27D, E46D, L51V, I52F, V105I
notes: as for B1
For the molecule B9, the binding result was “binds”.

B10: mIL23R VHH27 (VHH)
VHH: B1 VHH with F69S
notes: as for B1
Take B10: the binding result is “binds”.

B11: mIL23R VHH26 (VHH)
VHH: QVQLQESGGGSVQAGGSLRLSCAASGYTFCMAWFRQAPGKEREGVARFYTRDGYTYYSDSVKGRFTISQNNAKNTLYLQMNSLKSEDTAMYYCAADLTRCSSNKNDFRYWGQGTQVTVSS
notes: as for B1
B11: the binding result is given as “binds”.

B12: mIL23R VHH22 (VHH)
VHH: B11 VHH with G53S
notes: as for B1
For the molecule B12, the binding result is reported as “binds”.

B13: mIL23R VHH5 (VHH)
VHH: B11 VHH with T98A
notes: as for B1
With B13, the binding result is on record as “binds”.

B14: mIL23R VHH43 (VHH)
VHH: B11 VHH with N70D
notes: as for B1
On to B14, for which the binding result is listed as “binds”.

B15: mIL23R VHH24 (VHH)
VHH: B11 VHH with A24V, D59G
notes: as for B1
As to B15, the binding result is reported as “binds”.

B16: mIL23R VHH18 (VHH)
VHH: QVQLQESGGGLVQPGGSLRLSCAASGFTFRLTAMRWVRQAPGKGLEWVSGIDSRGSTIYADSVKGRFTISKDNAKNTLYLQLNSLKTEDTAMYYCAQGVYGDTYSGSQGTQVTVSS
notes: as for B1
As for B16, the binding result is listed as “binds”.

B17: mIL23R VHH31 (VHH)
VHH: B16 VHH with K71R
notes: as for B1
Take B17: the binding result was “binds”.

B18: mIL23R VHH17 (VHH)
VHH: B16 VHH with L11S, P14A
notes: as for B1
As to B18, the binding result was “binds”.

B19: mIL23R VHH28 (VHH)
VHH: B16 VHH with K71R, T90A
notes: as for B1
As for B19, the binding result is listed as “binds”.

B20: mIL23R VHH19 (VHH)
VHH: B16 VHH with T32S
notes: as for B1
Take B20: the binding result is given as “binds”.

B21: mIL23R VHH44 (VHH)
VHH: B16 VHH with T32S, L45F
notes: as for B1
B21: the binding result is on record as “binds”.

B22: mIL23R VHH42 (VHH)
VHH: B16 VHH with R30S, L31N, T32Y
notes: as for B1
B22: the binding result was “binds”.

B23: mIL23R VHH2 (VHH)
VHH: B16 VHH with L11S, P14A, R19T, A23T, S25P, T32A
notes: as for B1
For the molecule B23, the binding result was “binds”.

B24: mIL23R VHH34 (VHH)
VHH: B16 VHH with Y104H
notes: as for B1
Regarding B24, the binding result was “binds”.

B25: mIL23R VHH9 (VHH)
VHH: B16 VHH with A24T, L45V, R54A, L82M
notes: as for B1
B25: the binding result is reported as “binds”.

B26: mIL23R VHH23 (VHH)
VHH: B16 VHH with T28N, T32Y, L45V, R54G
notes: as for B1
For the molecule B26, the binding result was “binds”.

B27: mIL23R VHH45 (VHH)
VHH: B16 VHH with T32S, K64E
notes: as for B1
For the molecule B27, the binding result is “binds”.

B28: mIL23R VHH40 (VHH)
VHH: B16 VHH with T87S
notes: as for B1
For the molecule B28, the binding result was “binds”.

B29: mIL23R VHH13 (VHH)
VHH: B16 VHH with A24T, T32A
notes: as for B1
For B29, the binding result was “binds”.

B30: mIL23R VHH46 (VHH)
VHH: B16 VHH with T32S, N73D
notes: as for B1
Turning to B30, the binding result is recorded as “binds”.

B31: mIL23R VHH30 (VHH)
VHH: B16 VHH with Q108L
notes: as for B1
For B31, the binding result was “binds”.

B32: mIL23R VHH6 (VHH)
VHH: QVQLQESGGGSVQAGGSLRLSCAASGYTSGNYWMGWFRQAPGKEREGVATLWTGGASTFYGDSVKGRFTISRDNFKNTLYLQMNSLKVEDTAMYYCAADPALRLGANILRPAEYKYWGQGTQVTVSS
notes: as for B1
With B32, the binding result is “binds”.

B33: mIL23R VHH29 (VHH)
VHH: QVQLQESGGGLVQPGGSLRLSCAASGFTFSTSAMTWVRQAPGKGLDWVSGIDSGGTTVYADSVKGRFTISKDNAKNTLYLQMNSLKTEDTAVYYCATGLPWGNTWRTRGQGTQVTVSS
notes: as for B1
Regarding B33, the binding result is given as “binds”.

B34: mIL23R VHH14 (VHH)
VHH: B33 VHH with S30R, K71R, N73S, T97M
notes: as for B1
Regarding B34, the binding result is recorded as “binds”.

B35: mIL23R VHH38 (VHH)
VHH: B33 VHH with T104I
notes: as for B1
On to B35, for which the binding result is “binds”.

B36: mIL23R VHH39 (VHH)
VHH: B33 VHH with T31R, K71R, N73S, S84G, T97I
notes: as for B1
With B36, the binding result is given as “binds”.

B37: mIL23R VHH41 (VHH)
VHH: B33 VHH with S21T
notes: as for B1
For the molecule B37, the binding result is “binds”.

B38: mIL23R VHH21 (VHH)
VHH: B33 VHH with A24T, T31S, R108T
notes: as for B1
For the molecule B38, the binding result is “binds”.

B39: mIL23R VHH7 (VHH)
VHH: B33 VHH with T31R, K71R, N73S, T97I
notes: as for B1
Turning to B39, the binding result was “binds”.

B40: mIL23R VHH20 (VHH)
VHH: B33 VHH with T31S, F67A, S70L
notes: as for B1
B40: the binding result was “binds”.

B41: mIL23R VHH33 (VHH)
VHH: B33 VHH with A23T, A24T, T31S, R108T
notes: as for B1
In the case of B41, the binding result is recorded as “binds”.

B42: mIL23R VHH37 (VHH)
VHH: B33 VHH with A24T, T31S, S32G, R108T
notes: as for B1
With B42, the binding result is reported as “binds”.

B43: mIL23R VHH32 (VHH)
VHH: B33 VHH with Q13R, T31R, K71R, N73S, T97I
notes: as for B1
With B43, the binding result is recorded as “binds”.

B44: mIL23R VHH35 (VHH)
VHH: B33 VHH with S21A, A23S, T31S, F67A, S70L
notes: as for B1
As to B44, the binding result was “binds”.

B45: mIL23R VHH3 (VHH)
VHH: QVQLQESGGGSVQAGGSLRLSCTASVNTYCEYNMSWYRQAPGKEREFVSGVDSDGSTRYSESVKGRFTISQDNAKNTMYLQMNGLKPEDTAMYYCKTYVCTFCSGNSCYYEYKYYYEGQGTQVTVSS
notes: as for B1
With B45, the binding result is given as “binds”.

B46: mIL23R VHH4 (VHH)
VHH: QVQLQESGGGSVQAGGSLRLSCAASGYTYSNNCMGWFRQAPGKDRERIANIYTGGGRTTYADSVKGRFTISQDSAKSTVYLQMNSLKPEDTAMYYCAAGSCGSARSEYSYWGQGTQVTVSS
notes: as for B1
In the case of B46, the binding result is recorded as “binds”.
